Article PMC9830397 (European Journal of Translational Myology, 2022)

Target: FITC-labelled human holo-transferrin (human, UniProt P02787 20-698, FITC label (position not given); holo form)
Assay: solid-phase fluorescence binding assay

Sequence of FITC-labelled human holo-transferrin (P02787 20-698): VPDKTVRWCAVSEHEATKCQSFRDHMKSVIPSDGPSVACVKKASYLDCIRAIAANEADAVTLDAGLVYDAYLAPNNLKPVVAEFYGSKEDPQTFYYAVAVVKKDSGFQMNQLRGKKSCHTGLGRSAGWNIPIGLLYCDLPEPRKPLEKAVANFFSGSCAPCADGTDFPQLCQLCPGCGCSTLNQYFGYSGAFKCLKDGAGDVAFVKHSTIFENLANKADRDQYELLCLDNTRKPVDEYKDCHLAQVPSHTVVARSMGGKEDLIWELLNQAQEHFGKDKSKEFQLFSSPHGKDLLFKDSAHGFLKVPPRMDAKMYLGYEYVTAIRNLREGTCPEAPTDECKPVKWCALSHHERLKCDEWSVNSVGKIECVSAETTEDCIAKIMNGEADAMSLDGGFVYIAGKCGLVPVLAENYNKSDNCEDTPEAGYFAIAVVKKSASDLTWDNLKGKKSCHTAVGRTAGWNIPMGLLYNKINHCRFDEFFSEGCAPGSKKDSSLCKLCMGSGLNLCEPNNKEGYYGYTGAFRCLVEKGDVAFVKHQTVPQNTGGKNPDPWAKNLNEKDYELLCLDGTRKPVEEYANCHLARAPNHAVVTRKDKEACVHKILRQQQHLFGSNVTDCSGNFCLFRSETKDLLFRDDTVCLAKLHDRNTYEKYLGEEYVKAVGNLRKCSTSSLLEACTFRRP

B1: immX3AVD (peptide)
peptide: KKGFYKKKQCRPSKGRKRGFCWAVD
modifications: biotinylated (position not given); labelled with streptavidin-Alexa 488 conjugate (SA488) in the nuclear receptor assay
- binding result: binds
